Test results from patent US20210253678A1 (CUREAB, published 2021).

Legend:
[1] = biological target: T1, GP73 (endogenous human GP73 on HEK 293, HuH7, JHH4 and DU145 cells and in human tissue sections); assay: flow cytometry, surface staining of HEK 293 cells, axis anti-mouse APC
T1 construct: One entry for all cell lines and tissues; also called GOLM1; GOLPH2
T1 antigen: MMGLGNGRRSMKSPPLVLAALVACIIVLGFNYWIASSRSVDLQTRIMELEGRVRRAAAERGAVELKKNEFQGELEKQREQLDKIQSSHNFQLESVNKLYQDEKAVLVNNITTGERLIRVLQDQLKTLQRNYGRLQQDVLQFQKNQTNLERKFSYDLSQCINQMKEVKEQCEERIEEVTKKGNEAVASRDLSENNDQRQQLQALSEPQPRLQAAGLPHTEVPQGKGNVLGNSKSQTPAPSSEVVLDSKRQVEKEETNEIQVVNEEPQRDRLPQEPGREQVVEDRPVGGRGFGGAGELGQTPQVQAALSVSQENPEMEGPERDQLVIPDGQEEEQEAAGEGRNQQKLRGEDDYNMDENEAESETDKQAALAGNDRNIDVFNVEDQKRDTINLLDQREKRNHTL
Procedure: Detection of surface staining of cells is depicted as continuous line, only secondary antibody control detection is depicted as dashed line as described in Example 4.
Different human and murine cell lines e.g. HuH7, JHH4, HEK293, HEK293-GP73-myc and Ramos were tested by Flow cytometry analysis for expression of GP73 on their cell surface and binding of G2-2, G2-1 and G2-4. […]

[2] = biological target: T2, human GP73 (GOLM1, GOLPH2) in Alexander (PLC/PRF/5) cells (human, UniProt Q8NBJ4 1-401); assay: immunofluorescence on fixed, saponin treated Alexander cells
T2 construct: Endogenous protein of the cell line; cells were fixed with paraformaldehyde and treated with saponin
T2 sequence: T1 antigen
Procedure: Alexander cells were grown on 4 chamber slides, fixed with 4% paraformaldehyde, treated with 0.2% Saponin and blocked with 10% bovine serum albumin. Cells were incubated for one hour with goat anti-GP73 (santa cruz sc-48010) and mG2-2 and washed. Bound antibodies were stained with anti goat Alexa Fluor 488 (abeam ab150129) and anti mouse Alexa Fluor 647 (abeam ab150115). Nuclei were treated with DAPI.

[3] = biological target: T1, GP73 (endogenous human GP73 on HEK 293, …); assay: immunohistochemistry, paraffin section of hepatitis liver, anti-mouse secondary
From the text: FIG. 5 Immunohistochemical staining of tissues with the anti-rGOLPH antibody G2-2 and controls. Paraffin embedded tissues of A normal liver B hepatitis liver C and D hepatocellular carcinoma (HCC) were stained with murine G2-2 (mG2-2) (A,B,C) or anti-GP73 antibody M06A (Sigma) followed by secondary staining with an anti-mouse antibody and examined under a microscope by 40× magnification as described in Example 3.
Paraffin embedded tissues of normal liver, hepatitis liver, hepatocellular carcinoma (HCC), endometrium carcinoma, ovarian carcinoma, melanoma, small cell lung cancer and gastric cancer were stained with murine G2-2 (mG2-2) or mouse anti GOLPH (M06A Sigma) followed by secondary staining with an anti-mouse IgG. Nuclei were stained with hematoxylin (blue), cytoplasma was stained with hemalum-eosin.

[4] = biological target: T3, peptide AA 36-55 of GP73 (rGP73), SSRSVDLQTRIMELEGRVRR (human, biotinylated in the ELISAs (position not given)); assay: SPR (Biacore), fit for 1:1 binding, mean of measurements 1 + 2, GP73 peptide
T3 construct: also called GP73 peptide; peptide rGP73 (GP73 AA 36 to 55)
T3 peptide: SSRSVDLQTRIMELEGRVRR

[5] = biological target: T1, GP73 (endogenous human GP73 on HEK 293, …); assay: flow cytometry of antibody left on the surface of HuH7 cells (panel title) after loading at 4°C; detection with APC anti-human Fab
Procedure: Cells were incubated with 10 ug/ml of G2-2 or G2-1 for one hour at 4° C. in PBS. Unbound G2-2 was washed away and cells were transferred to tissue culture medium with 10% FCS and then either warmed to 37° C. to allow internalization or maintained at 4° C. The internalization process was stopped after 15, 30, 60 or 120 minutes by transferring the cells into ice-cold buffer with 0.1% […]. Cells were stained with APC-conjugated goat anti-human Fab (Jackson Immuno) and analyzed by FACS. The residual levels of cell surface G2-2 was calculated based on the mean fluorescence intensity (MFI).

[6] = biological target: T4, sGP73-10×His, encompassing GP73 AA56 to 401 (human, UniProt Q8NBJ4 56-401); assay: ELISA on coated sGP73-His, anti mouse HRP secondary
T4 construct: also called sGP73-His; sGP73-HIS
T4 sequence: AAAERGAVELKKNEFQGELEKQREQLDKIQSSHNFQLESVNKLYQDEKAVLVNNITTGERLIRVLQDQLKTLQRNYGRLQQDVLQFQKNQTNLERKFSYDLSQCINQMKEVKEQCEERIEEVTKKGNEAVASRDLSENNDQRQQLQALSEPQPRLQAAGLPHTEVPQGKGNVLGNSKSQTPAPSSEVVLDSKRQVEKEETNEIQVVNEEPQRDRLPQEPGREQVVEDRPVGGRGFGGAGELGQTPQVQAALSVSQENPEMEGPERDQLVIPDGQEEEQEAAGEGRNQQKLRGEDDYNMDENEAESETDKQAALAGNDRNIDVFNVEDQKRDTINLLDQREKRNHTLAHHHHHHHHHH
Procedure: (§1) ELISA was carried out in 96 well plates coated overnight with sGP73 or GP73 AVRR and blocked with 2% gelatine. Antibodies 8A10, G2-2opti (IgG2a) or isotype control antibody were applied, incubated for 1.5 hours and washed away. A secondary Horse radish peroxidase labeled anti mouse antibody was added for 1 hour and after extensive washing a chromogenic substrate (TMB Amersham) was applied to detect peroxidase.

[7] = biological target: T5, GP73-10×His AVRR, encompassing GP73 AA36 to 401 with a R52A mutation (human, UniProt Q8NBJ4 36-401); assay: ELISA on coated GP73-His AVRR, anti mouse HRP secondary
T5 construct: also called GP73 AVRR; GP73-His AVRR
T5 sequence: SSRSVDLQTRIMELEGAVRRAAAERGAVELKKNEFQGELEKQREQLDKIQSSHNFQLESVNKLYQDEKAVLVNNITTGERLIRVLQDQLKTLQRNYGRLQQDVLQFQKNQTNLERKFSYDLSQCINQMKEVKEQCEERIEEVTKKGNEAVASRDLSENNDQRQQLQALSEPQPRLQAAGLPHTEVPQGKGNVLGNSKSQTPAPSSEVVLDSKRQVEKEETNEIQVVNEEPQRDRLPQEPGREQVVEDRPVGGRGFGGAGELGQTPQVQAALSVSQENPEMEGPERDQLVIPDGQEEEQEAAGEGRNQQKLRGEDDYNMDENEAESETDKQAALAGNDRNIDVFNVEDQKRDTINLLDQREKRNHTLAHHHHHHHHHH
Procedure: as §1

[8] = biological target: T3, peptide AA 36-55 of GP73 (rGP73), …; assay: peptide ELISA on coated biotinylated rGP73 AA36-55, anti mouse HRP secondary
Procedure: ELISA was carried out in 96 well plates coated overnight with the biotinylated peptide gp73 AA 36-55 or an unrelated peptide and blocked with 2% gelatine. Antibodies 8A10, G2-2opti (IgG2a) or isotype control antibody (IgG2a) were applied, incubated for 1.5 hours and then washed away. A secondary horse radish peroxidase labeled anti mouse antibody was added for 1 hour and after extensive washing a chromogenic substrate (TMB Amersham) was applied to detect peroxidase.

B1: G2-4 (antibody, V domains shown)
VH: QVQLEESGGGLVQPGGSLRLSCATSGFTFTDYYMSWVRQPPGKALEWLGFIRNKAKGYTTEYSASVKGRFTISRDNSQSILYLQMNTLRAEDSATYYCARDPSTNYWYFDVWGAGTTVTVSS
VL: DIVLTQSPSSLAVSAGEKVTMTCKSSQSLLNSRTRKNYLAWYQQKPGQSPKLLIYWASTRESGVPDRFTGSGSGTDFTLTISSVQAEDLAVYYCKQSYNLYTFGGGTKLEIKR
binding result [1]: binds

B2: mG2-2 (G2-2 variable regions with murine IgG2a heavy chain and human Igk light chain constant regions) (antibody)
heavy: EVQLLQSGGGVVQPGRSLRLSCAASGFTFSSYGMSWVRQAPGKGLEWVAVISYDGSNKYYADSVKGRFTISRDNSKNTLYLQMNSLRAEDTAVYYCAREGSAGMDVWGQGTTVTVSSASTTAPSVYPLAPVCGDTTGSSVTLGCLVKGYFPEPVTLTWNSGSLSSGVHTFPAVLQSDLYTLSSSVTVTSSTWPSQSITCNVAHPASSTKVDKKIEPRGPTIKPCPPCKCPAPNLLGGPSVFIFPPKIKDVLMISLSPIVTCVVVDVSEDDPDVQISWFVNNVEVHTAQTQTHREDYNSTLRVVSALPIQHQDWMSGKEFKCKVNNKDLPAPIERTISKPKGSVRAPQVYVLPPPEEEMTKKQVTLTCMVTDFMPEDIYVEWTNNGKTELNYKNTEPVLDSDGSYFMYSKLRVEKKNWVERNSYSCSVVHEGLHNHHTTKSFSRTPGK
light: DIQMTQPSSLSASPGASASLTCTLRSDISVGFHRIYWYQQKPGSPPQYLLRYKSDSDKQQGSGVPSRFSGSKDASANAGILLISGLQSDDEADYYCVIWHTSGVVFGGGTKVEIKRTVAAPSVFIFPPSDEQLKSGTASVVCLLNNFYPREAKVQWKVDNALQSGNSQESVTEQDSKDSTYSLSSTLTLSKADYEKHKVYACEVTHQGLSSPVTKSFNRGEC
notes: also called murine G2-2
binding result [2]: binds | binding result [3]: binds

B3: G2-2 (human IgG1 heavy chain and human Igk light chain constant regions) (antibody)
heavy: not shown
light: B2 light
notes: scFv clone from a human scFv library, cloned as human IgG1/kappa; also called G2-2-HRP (horse radish peroxidase labeled); anti-rGOLPH antibody G2-2
Kd [4]: 4.29 nM | koff [4]: 0.00111 s⁻¹ | kon [4]: 260000 M⁻¹ s⁻¹ | binding result [5]: binds

B4: G2-2opti (IgG2a) (antibody, V domains shown)
VH: QVQLVQSGGGVVQPGRSLRLSCAASGFTFSSYGMHWVRQAPGKGLEWVAVISYDGSNKYYADSVKGRFTISRDNSKNTLYLQMNSLRAEDTAVYYCAREGSAGMDVWGQGTTVTVSS
VL: QAVLTQPSSLSASPGASASLTCTLRSDISVGFHRIYWYQQKPGSPPQYLLRYKSDSDKQQGSGVPSRFSGSKDASANAGILLISGLQSDDEADYYCVIWHTSGVVFGGGTKLTVL
notes: 'a chimeric human/murine version with a murine CH2 and CH2'
binding result [6]: no binding (tested: 5.0 ug/ml) | binding result [7]: binds | binding result [8]: binds

B5: G2-1 (human IgG1 heavy chain and human Igk light chain constant regions) (antibody, V domains shown)
VH: EVQLLESGGGVVQPGRSLRLSCAASGFTFSSYAMSWVRQAPGKGLEWVSVISYDGSNKAYADSVKGRFTISRDNSKNTLYLQMNSLRAEDTAVYYCARGRSYYDSSGYLFDYWGQGTLVTVSS
VL: DIQMTQPHSVSESVGKTVIITCTGGGGSIDTNYVQWYQQRPGSAPVTLIYEDDQRPFGVPDRFSAAIDTSSSSASLTISGLTAEDEATYYCQSSHSTAVVFGGGTKVEIKR
notes: scFv clone from a human scFv library, cloned as human IgG1/kappa; also called G2-1-HRP (horse radish peroxidase labeled)
Kd [4]: 3.02 nM | koff [4]: 0.00198 s⁻¹ | kon [4]: 635000 M⁻¹ s⁻¹
